The target of this assay is T1, Aven (human, UniProt Q9NQS1 1-362).
T1 construct: also called Bif-1
T1 sequence: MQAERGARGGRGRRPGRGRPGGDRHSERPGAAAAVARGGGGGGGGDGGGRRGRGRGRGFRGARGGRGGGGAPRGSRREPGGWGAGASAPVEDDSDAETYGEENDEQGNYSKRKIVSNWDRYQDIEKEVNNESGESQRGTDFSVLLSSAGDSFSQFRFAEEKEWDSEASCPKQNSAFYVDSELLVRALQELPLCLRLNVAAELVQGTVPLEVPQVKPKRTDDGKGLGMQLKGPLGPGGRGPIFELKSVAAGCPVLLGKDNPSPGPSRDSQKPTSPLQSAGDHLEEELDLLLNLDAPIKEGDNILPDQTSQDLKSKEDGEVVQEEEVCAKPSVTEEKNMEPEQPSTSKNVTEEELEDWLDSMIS
Description: yeast two-hybrid / co-immunoprecipitation (FIG. 6).

B1: Bak (other, UniProt Q16611 1-211, looked up)
chain: MASGQGPGPPRQECGEPALPSASEEQVAQDTEEVFRSYVFYRHQQEQEAEGVAAPADPEMVTLPLQPSSTMGQVGRQLAIIGDDINRRYDSEFQTMLQHLQPTAENAYEYFTKIATSLFESGINWGRVVALLGFGYRLALHVYQHGLTGFLGQVTRFVVDFMLHHCIARWIAQRGGWVAALNLGNGPILNVLVVLGVVLLGQFVVRRFFKS
In the case of B1, the binding result is recorded as “no binding”.

For the origin of these results see patent US6570002 (Johns Hopkins, dated 2003).
